T1: mouse FGFR2b (mouse, UniProt P21803)
T1 chain: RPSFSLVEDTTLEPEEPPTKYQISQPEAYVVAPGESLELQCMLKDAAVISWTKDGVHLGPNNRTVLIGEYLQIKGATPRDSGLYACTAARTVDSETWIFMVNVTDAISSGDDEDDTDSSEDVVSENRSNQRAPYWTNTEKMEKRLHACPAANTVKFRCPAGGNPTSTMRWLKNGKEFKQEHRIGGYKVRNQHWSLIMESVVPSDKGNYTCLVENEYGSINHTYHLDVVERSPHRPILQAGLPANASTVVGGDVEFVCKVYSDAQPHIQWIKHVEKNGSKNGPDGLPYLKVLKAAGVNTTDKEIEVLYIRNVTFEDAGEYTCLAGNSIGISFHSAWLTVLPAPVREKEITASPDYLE

B1: 1G6 (antibody, V domains shown)
VH: EIQLQQSGAELVKPGASVKMSCKASGYTFRYYNMHWVKRTPGQGLEWIGLIYPDNGDTSYNQKFKGKATLTADTSSSTAYMQLSSLTSEDSAVYYCARGGLDYWGQGTSLTVSS
VL: NIVMTQSHKFMSTSVGDRVSITCKASQDVNTDVAWYQQKPGQSPKLLIYSASYRYTGVPTRFTGSGSGTDFTFTISGVQAEDLADYYCQQHYNTPYTFGGGTKLELK
B2: 3E2 (antibody, V domains shown)
VH: B1 VH with R30S, Y31F
VL: NIVMTQSQKFMSTSVGDRVSVTCKASQNVGTNVAWYQQKPGQSPKALIYSASYRYTGVPDRFTGSGSGTDFTFTISSVQAEDLAVYYCQQHYSTPYTFGGGTKLEIK
B3: 1C10 (antibody, V domains shown)
VH: B1 VH with E1Q, I2V
VL: DIVMTQSPASLSASVGETVTITCRASGNIHNYLAWYQQKQGKSPQLLVYNAKTLADGVPSRFSGSGSGTQYSLKINSLQPEDFGSYYCQHFWSTPYTFGGGTKLEMK
B4: 1A3 (antibody, V domains shown)
VH: QVQLQQPGAELVKPGASVKMSCKASGYTFASYNLHWVKQTPGQGLEWIGLIYPENGDTSYNQKFKGKATLTADKSSSTAYIQLSSLTSEDSAVYFCARGGFDYWGQGTTLTVSQ
VL: DIQMTQSPASLSASVGETVTITCGASENIYGALNWYQRKQGKSPQLLIYGATNLADGMSSRFSGSGSGRQYSLKISSLHPDDVATYYCQNVLSTPYTFGGGTKLEIK
B5: 2B2 (antibody, V domains shown)
VH: B4 VH with V2L, P7S, G66D, S77T, T87A, Q114S
VL: B2 VL with N1D, T56S, F71Y, F73L, V85L, I106L
B6: 3G10 (antibody, V domains shown)
VH: EVQLQQSGPELVKPGASVKMSCKASGYTFATYNMHWVKQTTGQGLEWIGAIYPDNGDTFYNRKFKDKATLTADKSSTTAYMQLSSLTSEDSAVYYCARGDFAYWGQGTLVTVSA
VL: B4 VL with I2V, Q3L, I106M

Positions count from the first letter of the chain named.

T2 sequence (P21802 22-377): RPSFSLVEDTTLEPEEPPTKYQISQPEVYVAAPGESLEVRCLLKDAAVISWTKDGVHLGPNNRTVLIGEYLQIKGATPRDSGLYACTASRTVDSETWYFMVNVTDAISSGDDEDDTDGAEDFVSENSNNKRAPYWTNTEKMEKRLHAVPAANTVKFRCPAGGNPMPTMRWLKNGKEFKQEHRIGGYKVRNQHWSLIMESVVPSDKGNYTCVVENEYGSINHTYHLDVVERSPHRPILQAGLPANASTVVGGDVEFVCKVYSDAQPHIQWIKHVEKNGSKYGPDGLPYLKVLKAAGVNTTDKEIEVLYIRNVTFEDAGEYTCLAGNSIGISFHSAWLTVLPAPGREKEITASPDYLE

The first test concerns the target T2, human FGFR2b extracellular domain (human, UniProt P21802). The experiment in a line: BLI. For orientation: In BLI a coated tip is dipped into the sample, and binding shifts an interference pattern.
For orientation: Kd means the constant that tells how readily two partners part at equilibrium. B1 gave a Kd of 3.97 nM.
B2 gave a Kd of 4.45 nM.
The molecule B3 gave a Kd of 11.1 nM.
Molecule B4 displayed a Kd of 12.2 nM. The Kd values of the last two molecules are within 1.5-fold of each other.
The molecule B5 gave a Kd of 6.18 nM.
On the same count and under the same terms, then B6, with 6.25 nM.

In the next test the target is human FGFR2b on KATO III cells (human, UniProt P21802). The experiment in a line: FACS. Background: A flow cytometer gives signals particle by particle.
Chain of human FGFR2b on KATO III cells (P21802 22-377): as above
The EC50 is the concentration at which the effect is half-maximal. Low values mean a more potent agent, high ones a less potent agent. For B1, the EC50 stood at 0.186 µg/mL.
In turn, B2 returned an EC50 of 0.236 µg/mL.
Still for that read-out and setting: the value for B3 was 0.152 µg/mL; that for B4 was 0.0656 µg/mL.
The same measure, in the same setting: the value for B5 was 0.233 µg/mL; that for B6 was 0.149 µg/mL.

For the next test, the target named is T1, mouse FGFR2b. The experiment in a line: BLI.
Consider B1, for which binding was characterised by a dissociation constant (Kd) of 42.2 nM.
In turn, B2 registered a Kd of 36.5 nM.
Consider B3, for which the Kd was found to be 75.6 nM.
The molecule B4 displayed a Kd of 99.8 nM.
The same measure, in the same setting: then B5, with 53.5 nM.
With B6, binding was put at a Kd of 41.9 nM. The Kd values of the last two molecules are within 1.5-fold of each other.

Another test has as its target T2, human FGFR2b extracellular domain. The experiment in a line: ELISA.
B1 returned an EC50 of 0.0235 µg/mL.
For the molecule B2, it took 0.0235 µg/mL to reach a half-maximal effect (EC50).
The same measure, in the same setting: the value for B3 was 0.0159 µg/mL.
Same read-out and setting: the value for B4 was 0.00818 µg/mL; that for B5 was 0.0216 µg/mL.
Still for that read-out and setting: then B6, with 0.0276 µg/mL.

The values above are taken from patent publication US20260317430 (published 2026).
